Numbered stars: 1 amine (or outer) side, 2 acyl side, 3 side chain; on linkers, the order of the positions; unused ones are H or OH. Bridge positions count the residues as written; N and C are the ends. Ends that are not written are not given here. Phenylene(1,4-NHCOCH2)2 = O=C(C[*:1])Nc1ccc(NC(=O)C[*:2])cc1
Legend:
FBXW7-SKP1 = biological target: T1, FBXW7-SKP1 (Homo sapiens, UniProt Q969H0); test: Naive Library Presenter Screening (phage, NGS), FBXW7-SKP1; type: binding; settings: for interaction data at Target Concentration 10: FBXW7 target concentration 10 nM; for interaction data at Target Concentration 30: FBXW7 target concentration 30 nM; for interaction data at Target Concentration 100: FBXW7 target concentration 100 nM; for interaction data at Target Concentration 300: FBXW7 target concentration 300 nM; for interaction data at Target Concentration 1000: FBXW7 target concentration 1000 nM
T1 construct: FBXW7 (Uniprot ID: Q969H0, residues 263-706) with an N-terminal GST-TEV tag and C-terminal AVI tag; GST-TEV (N); made in house; host or cells: E. coli BL21 (DE3)
T1 sequence (Q969H0 263-706): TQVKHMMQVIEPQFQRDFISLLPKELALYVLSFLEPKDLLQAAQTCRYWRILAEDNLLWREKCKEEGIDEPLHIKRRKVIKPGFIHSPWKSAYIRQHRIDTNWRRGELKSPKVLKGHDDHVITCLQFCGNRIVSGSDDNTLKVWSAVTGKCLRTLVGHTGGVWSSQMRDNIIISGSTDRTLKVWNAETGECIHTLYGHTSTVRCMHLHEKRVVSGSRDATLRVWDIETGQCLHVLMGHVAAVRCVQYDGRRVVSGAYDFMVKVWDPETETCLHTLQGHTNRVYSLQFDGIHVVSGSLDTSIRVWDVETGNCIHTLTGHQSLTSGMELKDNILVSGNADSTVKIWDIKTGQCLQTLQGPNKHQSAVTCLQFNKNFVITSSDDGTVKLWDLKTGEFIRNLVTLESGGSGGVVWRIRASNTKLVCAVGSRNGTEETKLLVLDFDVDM
T1 sequence (P63208 whole entry partner, the tested form may be a part): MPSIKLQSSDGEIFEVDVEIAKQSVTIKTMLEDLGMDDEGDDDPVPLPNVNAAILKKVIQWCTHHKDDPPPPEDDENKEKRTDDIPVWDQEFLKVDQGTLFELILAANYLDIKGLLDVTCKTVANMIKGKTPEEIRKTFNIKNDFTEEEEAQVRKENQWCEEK
Description: To conduct phage library screening, previously described procedures were utilized in accordance with the present disclosure.
Next-generation sequencing was performed as described in accordance with the present disclosure.
Hit ID and Clustering is performed according to a described procedure in accordance with the present disclosure.

WWP1 = biological target: T2, WWP1 (Homo sapiens, UniProt Q9H0M0); test: Naive Library Presenter Screening (phage, NGS), WWP1 (construct not given); type: binding; settings: for interaction data at Target Concentration 10: WWP1 target concentration 10 nM; for interaction data at Target Concentration 30: WWP1 target concentration 30 nM; for interaction data at Target Concentration 100: WWP1 target concentration 100 nM; for interaction data at Target Concentration 300: WWP1 target concentration 300 nM; for interaction data at Target Concentration 1000: WWP1 target concentration 1000 nM
T2 construct: GST-TEV (N, cleaved yes); made in house; host or cells: Escherichia coli BL21 (DE3)

DPAAFFCDDAAERCEFW
interaction data at Target Concentration 10 (FBXW7-SKP1): 4 | interaction data at Target Concentration 30 (FBXW7-SKP1): 39 | interaction data at Target Concentration 100 (FBXW7-SKP1): 35 | interaction data at Target Concentration 300 (FBXW7-SKP1): 163 | interaction data at Target Concentration 1000 (FBXW7-SKP1; first column): 245 | interaction data at Target Concentration 1000 (FBXW7-SKP1; second column): 449

DPAAWICEEAAEICEFW
interaction data at Target Concentration 10 (FBXW7-SKP1): 0 | interaction data at Target Concentration 30 (FBXW7-SKP1): 0 | interaction data at Target Concentration 100 (FBXW7-SKP1): 5 | interaction data at Target Concentration 300 (FBXW7-SKP1): 4 | interaction data at Target Concentration 1000 (FBXW7-SKP1; first column): 15 | interaction data at Target Concentration 1000 (FBXW7-SKP1; second column): 36

DPADLTCEDAAELCEFW
interaction data at Target Concentration 10 (FBXW7-SKP1): 2 | interaction data at Target Concentration 30 (FBXW7-SKP1): 80 | interaction data at Target Concentration 100 (FBXW7-SKP1): 352 | interaction data at Target Concentration 300 (FBXW7-SKP1): 535 | interaction data at Target Concentration 1000 (FBXW7-SKP1; first column): 1005 | interaction data at Target Concentration 1000 (FBXW7-SKP1; second column): 510

DPADMMCENAALLCEFW
interaction data at Target Concentration 10 (FBXW7-SKP1): 1 | interaction data at Target Concentration 30 (FBXW7-SKP1): 3 | interaction data at Target Concentration 100 (FBXW7-SKP1): 68 | interaction data at Target Concentration 300 (FBXW7-SKP1): 20 | interaction data at Target Concentration 1000 (FBXW7-SKP1; first column): 282 | interaction data at Target Concentration 1000 (FBXW7-SKP1; second column): 228

DPADMYCRDAAELCEFW
interaction data at Target Concentration 10 (FBXW7-SKP1): 1 | interaction data at Target Concentration 30 (FBXW7-SKP1): 23 | interaction data at Target Concentration 100 (FBXW7-SKP1): 187 | interaction data at Target Concentration 300 (FBXW7-SKP1): 302 | interaction data at Target Concentration 1000 (FBXW7-SKP1; first column): 505 | interaction data at Target Concentration 1000 (FBXW7-SKP1; second column): 554

DPAFWYCDEAAEMCEFW
interaction data at Target Concentration 10 (FBXW7-SKP1): 0 | interaction data at Target Concentration 30 (FBXW7-SKP1): 0 | interaction data at Target Concentration 100 (FBXW7-SKP1): 20 | interaction data at Target Concentration 300 (FBXW7-SKP1): 28 | interaction data at Target Concentration 1000 (FBXW7-SKP1; first column): 91 | interaction data at Target Concentration 1000 (FBXW7-SKP1; second column): 17

DPAIRMCRDAAELCEFW
interaction data at Target Concentration 10 (FBXW7-SKP1): 0 | interaction data at Target Concentration 30 (FBXW7-SKP1): 0 | interaction data at Target Concentration 100 (FBXW7-SKP1): 1 | interaction data at Target Concentration 300 (FBXW7-SKP1): 4 | interaction data at Target Concentration 1000 (FBXW7-SKP1; first column): 66 | interaction data at Target Concentration 1000 (FBXW7-SKP1; second column): 94

DPAITTCLDAAELCDFW
interaction data at Target Concentration 10 (FBXW7-SKP1): 1 | interaction data at Target Concentration 30 (FBXW7-SKP1): 26 | interaction data at Target Concentration 100 (FBXW7-SKP1): 61 | interaction data at Target Concentration 300 (FBXW7-SKP1): 34 | interaction data at Target Concentration 1000 (FBXW7-SKP1; first column): 215 | interaction data at Target Concentration 1000 (FBXW7-SKP1; second column): 132

DPAMTWCLNAAELCEFW
interaction data at Target Concentration 10 (FBXW7-SKP1): 0 | interaction data at Target Concentration 30 (FBXW7-SKP1): 0 | interaction data at Target Concentration 100 (FBXW7-SKP1): 0 | interaction data at Target Concentration 300 (FBXW7-SKP1): 3 | interaction data at Target Concentration 1000 (FBXW7-SKP1; first column): 17 | interaction data at Target Concentration 1000 (FBXW7-SKP1; second column): 83

DPANIACDDAALLCAFW
interaction data at Target Concentration 10 (FBXW7-SKP1): 0 | interaction data at Target Concentration 30 (FBXW7-SKP1): 0 | interaction data at Target Concentration 100 (FBXW7-SKP1): 2 | interaction data at Target Concentration 300 (FBXW7-SKP1): 7 | interaction data at Target Concentration 1000 (FBXW7-SKP1; first column): 5 | interaction data at Target Concentration 1000 (FBXW7-SKP1; second column): 8

DPANIACDDAALLCEFW
interaction data at Target Concentration 10 (FBXW7-SKP1): 4 | interaction data at Target Concentration 30 (FBXW7-SKP1): 131 | interaction data at Target Concentration 100 (FBXW7-SKP1): 203 | interaction data at Target Concentration 300 (FBXW7-SKP1): 946 | interaction data at Target Concentration 1000 (FBXW7-SKP1; first column): 1140 | interaction data at Target Concentration 1000 (FBXW7-SKP1; second column): 1464

DPANIACDDAALLCELW
interaction data at Target Concentration 10 (FBXW7-SKP1): 0 | interaction data at Target Concentration 30 (FBXW7-SKP1): 1 | interaction data at Target Concentration 100 (FBXW7-SKP1): 1 | interaction data at Target Concentration 300 (FBXW7-SKP1): 7 | interaction data at Target Concentration 1000 (FBXW7-SKP1; first column): 8 | interaction data at Target Concentration 1000 (FBXW7-SKP1; second column): 6

DPANWVCMDAAELCDFY (DPANWVCMDAAELCDFY-NH2; linker 7-14 via Phenylene(1,4-NHCOCH2)2 (inferred))
interaction data at Target Concentration 10 (FBXW7-SKP1): 0 | interaction data at Target Concentration 30 (FBXW7-SKP1): 0 | interaction data at Target Concentration 100 (FBXW7-SKP1): 5 | interaction data at Target Concentration 300 (FBXW7-SKP1): 2 | interaction data at Target Concentration 1000 (FBXW7-SKP1; first column): 99 | interaction data at Target Concentration 1000 (FBXW7-SKP1; second column): 15

DPAQLSCTVAAHVCHST (linker 7-14 via Phenylene(1,4-NHCOCH2)2; not fully specified (C-terminus))
interaction data at Target Concentration 10 (WWP1): 0 | interaction data at Target Concentration 30 (WWP1): 25 | interaction data at Target Concentration 100 (WWP1): 0 | interaction data at Target Concentration 300 (WWP1): 254 | interaction data at Target Concentration 1000 (WWP1; first column): 275 | interaction data at Target Concentration 1000 (WWP1; second column): 140

DPAQQTCSQAAWVCSIL (linker 7-14 via Phenylene(1,4-NHCOCH2)2; not fully specified (C-terminus))
interaction data at Target Concentration 10 (WWP1): 0 | interaction data at Target Concentration 30 (WWP1): 55 | interaction data at Target Concentration 100 (WWP1): 443 | interaction data at Target Concentration 300 (WWP1): 363 | interaction data at Target Concentration 1000 (WWP1; first column): 397 | interaction data at Target Concentration 1000 (WWP1; second column): 477

DPARLDCTAAAYVCSVL (linker 7-14 via Phenylene(1,4-NHCOCH2)2)
interaction data at Target Concentration 10 (WWP1): 0 | interaction data at Target Concentration 30 (WWP1): 0 | interaction data at Target Concentration 100 (WWP1): 109 | interaction data at Target Concentration 300 (WWP1): 91 | interaction data at Target Concentration 1000 (WWP1; second column): 140

DPARWACTEAAHVCDTL (linker 7-14 via Phenylene(1,4-NHCOCH2)2)
interaction data at Target Concentration 10 (WWP1): 0 | interaction data at Target Concentration 30 (WWP1): 2 | interaction data at Target Concentration 300 (WWP1): 182 | interaction data at Target Concentration 1000 (WWP1; first column): 183 | interaction data at Target Concentration 1000 (WWP1; second column): 281

DPATETCAQAAVLCHSD (linker 7-14 via Phenylene(1,4-NHCOCH2)2 (inferred); not fully specified (C-terminus))
interaction data at Target Concentration 10 (WWP1): 1 | interaction data at Target Concentration 30 (WWP1): 12 | interaction data at Target Concentration 100 (WWP1): 3 | interaction data at Target Concentration 300 (WWP1): 200 | interaction data at Target Concentration 1000 (WWP1; first column): 519 | interaction data at Target Concentration 1000 (WWP1; second column): 449

DPATHVCTTAA VMCHQT (DPATHVCTTAAVMCHQT; not fully specified; cysteine pairing not given here)
interaction data at Target Concentration 10 (WWP1): 0 | interaction data at Target Concentration 30 (WWP1): 0 | interaction data at Target Concentration 100 (WWP1): 6 | interaction data at Target Concentration 300 (WWP1): 327 | interaction data at Target Concentration 1000 (WWP1; first column): 275 | interaction data at Target Concentration 1000 (WWP1; second column): 365

DPATMNCTLAANICHSH (linker 7-14 via Phenylene(1,4-NHCOCH2)2 (inferred); not fully specified (C-terminus))
interaction data at Target Concentration 10 (WWP1): 0 | interaction data at Target Concentration 30 (WWP1): 0 | interaction data at Target Concentration 100 (WWP1): 3 | interaction data at Target Concentration 300 (WWP1): 363 | interaction data at Target Concentration 1000 (WWP1; first column): 458 | interaction data at Target Concentration 1000 (WWP1; second column): 197

DPAVRDCSDAAIVCELV (linker 7-14 via Phenylene(1,4-NHCOCH2)2)
interaction data at Target Concentration 10 (WWP1): 5 | interaction data at Target Concentration 30 (WWP1): 5 | interaction data at Target Concentration 100 (WWP1): 147 | interaction data at Target Concentration 300 (WWP1): 91 | interaction data at Target Concentration 1000 (WWP1; second column): 197

DPAWMACAWAANLCHSS (linker 7-14 via Phenylene(1,4-NHCOCH2)2)
interaction data at Target Concentration 10 (WWP1): 0 | interaction data at Target Concentration 30 (WWP1): 18 | interaction data at Target Concentration 100 (WWP1): 14 | interaction data at Target Concentration 300 (WWP1): 91 | interaction data at Target Concentration 1000 (WWP1; first column): 244 | interaction data at Target Concentration 1000 (WWP1; second column): 253

DPAWVSCVRAANLCHVS (linker 7-14 via Phenylene(1,4-NHCOCH2)2 (inferred); not fully specified (C-terminus))
interaction data at Target Concentration 10 (WWP1): 33 | interaction data at Target Concentration 30 (WWP1): 1 | interaction data at Target Concentration 100 (WWP1): 0 | interaction data at Target Concentration 300 (WWP1): 0 | interaction data at Target Concentration 1000 (WWP1; first column): 183 | interaction data at Target Concentration 1000 (WWP1; second column): 140

Reference: patent US20240376151A1, “STAPLED PEPTIDES AND METHODS THEREOF” (FOG PHARMACEUTICALS, INC., priority 2022, published 2024)
